# Data reported in the nanobody polyreactivity screen of Harvey et al. (2022).
# Experiment: yeast display, Sf9 membrane polyspecificity reagent, FACS + sequencing; frameworks hold sequencing errors
# Summary of the method: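 Genes from sorted yeast were amplified by colony PCR, read by MiSeq 2 × 250 sequencing and filtered on CDR length. These cells carried a synthetic nanobody library in Saccharomyces cerevisiae BJ5465 and were sorted by FACS into low and high (top ~1%) gates on anti-HA and streptavidin fluorescence. Polyreactivity is labelled according to the gate of origin.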
row,Sequence,polyreactivity (PSR sort gate)
1,QVQLVESGGGLVQAGASLRLSCAASGSTFYYNAMGWYRQAPGKERELVAAISKSSSRTYYADSVKGRFTISRDNAKNTVFLQMNSLKPEDTAGYYCAADAVYYHFDYWGQGTQVTVSS,high polyreactivity
2,QVQLVESGGGLVQAGGSLRLSCAASGRTFWYYTMGWYRQAPGKERELVASITYRGGSTYYADSVKGRFTISRDNAKNTVYLQMNSLKPEDTAVYYCNARSGNRYGPRYDYWGQGTQVTVSS,high polyreactivity
3,QVQLVESGGRLVQAGGSLRLSCAASRRIFTFYAMGWSRPAPGKERELVAAITGRGGSTYYADSVKGRFTISRDNAKNTVYLQMNSLKPEDTAVYYCAKRTSYRSHRYYYWGQGTQVTVSS,high polyreactivity
4,QVQLVESGGGLVQAGGSLRLSCAASGSTFYTNPMGWYRQAPGKERELVAAISGSGGSTYYADSVKGRFTISRDNAKNTVYLQMNSLKPEYTAVYYCAARSRYYDTRFDYWGQGTQVTVSS,low polyreactivity
5,QVQLVESGGGLLQAGGSLRLSCAASGRTFSYYAMGWYRQAPGKERELVAAISWRGGSTYYADSVKGRFTISRDNAKNTVYLQMNSLKPEDTAVYYCAALPRYALGEDYWGQGSQVTVSS,high polyreactivity
6,QVQLVESGGGLVQAGGSLRLSCAASGSIFGFYAMGWYRQAPGKERELVASITISGGSTYYADSVKGRFTISRDNAKNTVYLQLNSLKPEDTAVYYCAARRFWDYNYWGQGTQVTVSS,low polyreactivity
7,QVQLVESGGGLVQAGGSLRLSCAASGSIFGLYAMGWYRQAPGKERELVATITSGTNTYYADSVKGRFTISRDNAKNTVYLQMNSLKAEDTAVYYCAKSYIAWDGRTFEEMNYWGQGTLVTVSS,low polyreactivity
8,QVQLVESGGGLVQAGGSLRLSCAASGRIFLFYAMGWYRQAPGKERELVAAISSTDDTYYADSVKGRFTISRDNAKNTVYLQMNSLKPEDTAVYYCAAYSIISQSEMYYWGQGTQVTVSS,low polyreactivity
9,QVQLVESGGGLVQAGGSLRLSCAACGRPFTLYAMGWYRQAPGKERELVASITSGTRTYYADSVKGRFTISRDNAKNTVYLQMNSLKPEDTAVYYCAKEGYRRTLHRLYDYWGEGTQVTVSS,low polyreactivity
10,QVHLVESGGGLVQAGGSLRLSCSASGSILKYYAMGWYRQAPGKERELVAAISRSGGSTYYADSVKGRFTISRDNAKNTVYLHMNSLKPEDTAVYYCAAYYNFPYHGSDYWGQGTEVTVSS,high polyreactivity
11,QVQVEESGGGFDQAGGSLRLSCAASGSIFYYNAMGWYRQAPGKERELVAAISGRTGSTYYADSVKGRFTISRDNAKNTVYLQMNSLKPEDTAVYYCNALFLGYYYYWGQGTQVTVSS,high polyreactivity
12,QVQLVESRGVLVQAGGSLRLSCAASGFTFDYNAMGWYRQAPGKERELVAVISSSGSRTYYADSVKGRFTISRDNAKNTVYLQMNSLKPVDTAVYYCARDNWQWYPSTWYDYWGQGTQVTVSS,high polyreactivity
13,QVQLVESGGGLVQAGGSLRLSCAASGITFARYAMGLYRQAPGKERELVAAISWSGGSTYYADSVKGRFTISRDNAKNTVYLQMNSLKPEDTAVYYCAAGGRVRRNKFDYWGQGTQVTVSS,high polyreactivity
14,QVQLVESGGGLVQAGGSLRISCAASGRTFDPYAMGWYRQAPGKERELVASISRGGSTYADSVKGRFTISRDNAKNTVYLQMNSLKPEDTAVYYCNTSLYTEGDAMDYWGQGTQVTVSS,low polyreactivity
15,QLQLVESGGGLVQAGGSLRLSSAASGFIFDGNAMGGYRQAPGKERELVAAISWDGGTYYADSVKGRFTISRDNAKNTVYLQMNSLKPEDTAVDYCPAEQTQLYSFGWDEYWGQGTQVTVSS,low polyreactivity
16,QVQLVESGGGLVQAGGSLRLSCAASGSTFTHYAMGWYRQAPGKERELVAAITSSGGSTYYADSVKGRFTISRDNAKNTVYLQMNSLKPEDTAVYYCAARGSYRNRYRHDYWGQGTQVTVSS,high polyreactivity
17,QVQLVESGGGLVQAGGSLRLSCAASGSTFYWYAMGWYRHAPGKEREFVADIDWSGGSTYYADSVKGRFTISLDNAKNTVYLQMNSLKPEDTAVYYCAAVGAAGQDNYWGQGTQVTVSS,high polyreactivity
18,QVQLVESGGGLVQAGGSLRLSCAASGRIFYGYAMGWYRQAPGKERELVAAITWIDGSTYYADSVKGRFTISRDNAKNTVYLQMNSLKPEDTAVYFCNKTWYGDSGTRTYWGQVTQVTVSS,low polyreactivity
19,QVQLVESGGGLVQAGGSLRLSCAASGSTFRGYAMGWYRQAPGKERELVAAISRADITNYADSVKGRFTISRDNAKNTVYLQMNSLKPEDTAVYYCNAGVGARESDYWGQGTQVTVSS,low polyreactivity
20,QVQLVESGGGLVQSGGSLRLSCAYSGRTFYRNTMGWYRHAPGKEREFVAAISATAGRTYYADSVKWRFTISRDNAKNTVYLQMNSLKPEDTAVYYCAAVPLRNRWANSWPALDYWGQGTLVTVSS,high polyreactivity
21,QVQLVESGGGLVQAGGSLRLSCAASGSISWYYAMGWYRQAPGKERELVAAISDSGGDTYYADSVKGRFTISRDNAKNTVYLQMNSLKPEDTAVYYCAAQYRGSYRTTYDYWGQGTQVTVSS,low polyreactivity

row,Sequence,polyreactivity (PSR sort gate)
1,QVQLVESGGGLVQAGGSLRLSCAASGRTFYAYAMGWYRQAPGKERELVASISDRGGSTYYADSVKGRFTISRDNAKNTVYVQMNSLKPEDTAVYYCAAEYRTQRWFGSWGQGTQVTVSS,high polyreactivity
2,QVQLVESGGGLVQAGGSLRLSCAASGSILARYAMGWYRQAPGKERELVAAISSRGGSTYYADSVKGRFTISRDNAKNTVYLQMNSLKPEDTAVYYCAAYVYLQVEYDYWGQGTQVTVSS,low polyreactivity
3,QVQLVESGGGLVQAGGSLRLSCAASGRIFRVNAMGWYRQAPGKERELVARIDSGGRTNYADSVKGRFTISRDNAKNTVYLQMTSLKPEDTAVYYCARVFSLARSWYRYYYWGQGTQVTVSS,high polyreactivity
4,QVQLVESGGGLVQAGGSLRLSCAASGLTFSVYTMGWYRQAPGKERELVAAITTSGGRTYYADSVKGRFTISRDNAKNTVYLQMNSLKPVDPAVYYCAAVRTGDTTGTMGYWGQGTQVTVSS,high polyreactivity
5,QVQLVESGGGLVQAGGSLRLSWAASGSTFVVNAMGWYRQAPGKERELVAAITQDGDGTYYADSVKGRFTISRDNAKNTVYLQMNSLKPEDTAVYYCAAYPFYGPYDEFDYWGQGTEVTVSS,low polyreactivity
6,QVQLVESGGGLVQAGGSLRLSCAASGSTIRSNAMGWYRQAPGKERELVAAITSGGSTYYAESVKGRFTISRDNAKNTVYLQMNSLKPEDTAVYYCAVRYYRRRYDYWGQGTQVTVSS,low polyreactivity
7,QVQLVESGGGLVQAGGSLRLSCAASGSTLLFYAMGWYRQAPGKEREFLATITFRGGSTYYADSVKGRFTISRDNAKNTVYLQMNSLKPEDTAVYYCNAGSRRGYYRSRPGGYCGQGTQVTVSS,high polyreactivity
8,QVQLVESGGGLVQAGGSLRLSCAASGRTFTNYAMGWYRQAPGKERELVAAAITVGGGRTYYADSVKGRFTISRDNAKNTVYLQMNSLKPEDTAVYYCATDFGTYWYEYWGQGTQVTVSS,high polyreactivity
9,QVQLVESGGGLVQAGGSLRLSCAASGSSFPENAMGWYRQAPGKERQLVAGISRSDAGTHYADSVKGRFTISRDNAKNTVYVQMNSLKPEDTAVYYFDAGGTDEDRLTSWVGLFPAYYYWGQATQVTVSS,low polyreactivity
10,QVQLVESGGGLVQEGGSLRLSCAASGRIFGVNAMGWYRQAPGKERELVAAIFSGGSTYYADSVKGRFTISRDNAKNTVYLQMNSLKPEDTAVYYCAARFARYDWSMYYWGQGTQVTVSS,low polyreactivity
11,QVQLVESGGGLVQAGGSLRLSCAASGSIFGNNAMGWYRQAPGKERELVAAITSGGSTTYADSVKGRFTISRDNAKNTVYLLMNSLKPEDTAVYYCAATPVWGFVWEYNYWGQGTQVTVSS,low polyreactivity
12,QVQLVESGGGLVQAGGSLRLSCAASGFIFRWYAMGWYRQAPGKERELVAAITWRGGSTYADSVKGRFTISRDNAKNTVYLQMNSLKPEDTAVCYCAAETHRRYDYWGQGTQVTVSS,high polyreactivity
13,QVQLVESGGGLVQAGGSLRLSCAASGSIFLQNAMGWYRQAPGKERELVAAITNGGSTNYADSVKGRFTISRDNAKNTVYLQMNSLKPEDSAVYYCAAYPLYTGSYDRGGYWGQGTQVTVSS,low polyreactivity
14,QVQLVESGCGLVHAGGSLRLSCAASGRILRYYAMGWYGQAPGKDRELVAVITSSDGSTYYADSVKGRITISRDNAMNTVYLQMNSLKPEDTAVYYCAAAPLWRLASWWDPYRRYDYWGQGTQVTVSS,low polyreactivity
15,QVQLVESGGGLVQAGGSLRLSCAASGRIFIYYTMGWYRPAPGKERELVASITWSGGRTYYADSVKGRFTISRDNAKNTVYLQMNSLKPEDNAVYYCNAGYSIGLVAYGYWGQGTQVTVSS,low polyreactivity
16,QVQLVESGGGLVQAGGSLRLSCAASGRTFGYYAMGWYRQAPGKERELVAAISWSGGRTYYADSVKGRFTISRDNAKNTVYLQMNSLKPEDTAVYYCAAQTAGFWYDYWGQGTQVTVSS,high polyreactivity
17,QVQQHESGDGLVQAVGSLRLTCAASGYISGNYYMGWYRQATGKERELVAGIDAFGSSTNYADCVKGRFTISRDNAKNTVYLQMNSLKPEDTAVYYCAARPDGDRLFYYWGQGTQVTVSS,low polyreactivity
18,QVQLVESGGGLVQAGGSLRLSCAASGSIFPHNAMGWYRQAPGKERELVAAISVSGGSTYYADSVKGRFTISRDNAKNTVYLQMNSLKPEDTAVYYCATRYGRARAYYYWGQGTQVTVSS,high polyreactivity
19,QVQLVESGGGLVQAGGSLRLSCAASGSTFNGNDMGWYRQAPGKERELVATISDGGRTYYADSVKGRFTISRDNAKNTVYLQRNSLKPEDTAVYYCAAPVYVPRAWFYYWGQGTQVTVSS,low polyreactivity
20,QVQLVESGGGLVQAGGSLRLSCAASGSIFEGYVMGWYRQAPGKERELVAGISRGSRTNYADSVKGRFTISRDNAKNTVYLQMNSLKPEDTAVYYCAAEYWGVYRGFVSSFDYWGQGTQVTVSS,high polyreactivity
